Source: patent US5968751A, “Method for detecting the presence of protein C antibody in a fluid sample” (The Scripps Research Institute, priority 1997, dated 1999)
pIC50: −log10 of the molar value. No end group written: not given here.

Experiments:
[1] = target: T1, APC (Homo sapiens, UniProt P04070); assay: APTT and Xa-1-stage coagulation assays, inhibition of APC anticoagulant activity; type: biochemical; design: Protein C consists of a 155 amino acid residue light chain and a 262 amino acid residue heavy chain; from tissue; host or cells: human plasma factor IX concentrate
Method: The effect of the synthetic peptides on APC anticoagulant activity were determined using the APTT assay in the presence of either normal citrate anticoagulated plasma (NHP) or protein S depleted plasma (PSDP). The assays were performed essentially as described. See Marlar et al., Blood, 59:1067-1072 […]; Suzuki et al., J. Biol. Chem., 258:163-168 (1983); Gruber et al., Blood, 73:639-642 (1989); Ohlin et al., Biochem., 29:644-651 (1990). NHP was purchased from George King Bio-Medical, Inc. (Overland Park, Kans.). PSDP was prepared from a normal human citrate-anticoagulated plasma pool from ten healthy donors. Protein S was immunodepleted from the NHP by immunoaffinity chromatography of NHP over an anti-protein S antibody column to form PSDP. The anti-protein S antibody column was prepared by coupling 100 mg of a monoclonal, high-affinity, calcium-independent anti-PS antibody, designated S7, to 30 ml of CNBr-activated Sepharose 4B (Pharmacia) as described in Example 2cl).
For the APTT assay, APC was prepared as described in Example 2c2). […] The concentration of the APC used in the assay was initially optimized with respect to the sensitivity of the assay towards APC-induced prolongation of clotting time compared to clotting time without APC.
Once the optimal concentration of APC was determined, peptides from the heavy and light chains of PC and control scrambled peptides listed below in Example 5a2) in Tables 6 and 7 were then separately admixed for a final concentration of 500 μM with 10 nM APC in 100 μl of TBS-BSA at pH 7.4 to form peptide-APC admixtures. Peptides were prepared as described in Example 1. The resulting admixtures were maintained for ten minutes at 37° C. Separate aliquots of peptides maintained under the same conditions in the absence of APC served as controls for the inhibitory effect of synthetic peptides on APC anticoagulant activity. After the maintenance period, 100 μl of NHP and 100 μl APTT-reagent Thrombosil (Ortho Diagnostics, Raritan, N.J.) were admixed into each peptide admixture and maintained for 200 seconds at 37° C. to form a pre-coagulation admixture. In some experiments, PSDP was used in the place of NHP to determine the effect of Protein S on the assay system. Coagulation was then initiated by the admixture of 100 μl of 30 mM CaCl2 in TBS prewarmed to 37° C. to each of the pre-coagulation admixtures. The time for clot formation was measured by an Electra 700 Automatic Coagulation Timer (Medical Laboratory Automation, Inc., Mount Vernon, N.Y.). Each peptide's effect was determined in duplicate.
For peptides at a concentration of 500 μM that inhibited at least 50% of APC anticoagulant activity, analysis of dose-response was subsequently conducted.
For testing the inhibition of the synthetic peptides on APC activity described above, Xa-1-stage coagulation assays were also performed as described. See Seegers et al., Thrombosis Res., 13:233-243 (1978); Marlar et al., supra; and Walker et al., J. Biol. Chem., 265:1484-1489 (1990).
Target sequence in this assay (P04070 43-197 limits assumed): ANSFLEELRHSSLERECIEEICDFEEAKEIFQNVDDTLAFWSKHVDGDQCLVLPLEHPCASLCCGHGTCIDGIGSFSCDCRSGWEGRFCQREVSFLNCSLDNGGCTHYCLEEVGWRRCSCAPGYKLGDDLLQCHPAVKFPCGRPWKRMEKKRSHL
Target sequence in this assay (P04070 212-450 limits assumed): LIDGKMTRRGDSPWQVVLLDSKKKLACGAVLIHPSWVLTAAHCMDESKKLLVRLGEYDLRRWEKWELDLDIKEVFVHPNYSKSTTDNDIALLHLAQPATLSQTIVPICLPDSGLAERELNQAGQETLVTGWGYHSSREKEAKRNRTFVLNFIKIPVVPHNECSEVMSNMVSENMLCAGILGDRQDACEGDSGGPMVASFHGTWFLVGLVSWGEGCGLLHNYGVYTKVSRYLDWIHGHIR

[2] = target: T1, APC; assay: inhibition of APC by recombinant mutant (Arg358)-α1-antitrypsin, time course; type: biochemical; design: Protein C consists of a 155 amino acid residue light chain and a 262 amino acid residue heavy chain; from tissue; alpha1-AT mutant from Transgene, Strasbourg; conditions: 250 μM PC311-325, 500 μM PC142-155; 18 nM APC, 100 nM α1-AT
Method: Kinetic studies of inhibition of APC were performed with the higher affinity mutant α1 -AT pseudo-substrate. For the assay, 60 μl of 36 nM APC and/or 60 μl of 200 nM recombinant (Arg^358)-α1 -AT prepared in TBS-BSA at pH 7.4 containing 0.02% NaN3 and 2 mM CaCl2 were separately admixed with 500 μM PC311-325 or 1 mM PC142-155 and maintained for 30 minutes at 37° C. to form APC-peptide and/or α1 -AT-peptide admixtures for each peptide tested, respectively. Thereafter, the peptide-treated APC and α1 -AT admixtures were combined to form a reaction admixture. At selected time points, 8 μl aliquots from the reaction admixture were removed and admixed with 300 μl 0.8 mM S-2366 in TBS-BSA at pH 8.0 containing 0.02% NaN3 to initiate the hydrolysis of S-2366 by APC. The change in absorbance was measured over time as described in the amidolytic assay. […]
Since the number of amino acid residues involved in neutralization of APC by macromolecular plasma protease inhibitors is likely to be higher than the number of residues of APC involved in the cleavage of a small chromogenic substrate such as S-2366, the effect of anti-PC317-331 antibody on the time course of inhibition of APC by a larger pseudo-substrate, such as recombinant mutant (Arg^358)-α1 -AT was evaluated. […] The change in absorbance was measured over time as described in the amidolytic assay. […]
Target sequence in this assay (P04070 43-197): as the sequence (P04070 43-197 limits assumed) above
Target sequence in this assay (P04070 212-461): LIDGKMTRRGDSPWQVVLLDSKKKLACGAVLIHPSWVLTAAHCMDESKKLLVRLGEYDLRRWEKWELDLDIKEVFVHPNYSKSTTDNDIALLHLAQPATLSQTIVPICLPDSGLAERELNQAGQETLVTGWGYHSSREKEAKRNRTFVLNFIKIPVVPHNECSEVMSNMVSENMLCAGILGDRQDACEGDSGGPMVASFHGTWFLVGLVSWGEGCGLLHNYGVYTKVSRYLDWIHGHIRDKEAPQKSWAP

[3] = mean values of APTT and Xa-1 stage assays, NHP, control peptide at 500 μM (±10%)

VKFTIRVFNPRNLKI [Control Peptide, reference compound]
IC50 (concentration of peptide that inhibits 50% of APC anticoagulant activity) [1, 3]: no effect
IC90 ** μM (concentration of peptide that inhibits 90% of APC anticoagulant activity) [1, 3]: no effect
effect on APC anticoagulant activity ([1]; various concentrations up to 500 μM peptide): no significant effect

KRNRTFVLNFIKIPV-NH2 [PC311-325, Lys-Arg-Asn-Arg-Thr-Phe-Val-Leu-Asn-Phe-Ile-Lys-Ile-Pro-Val]
effect on the time course of inhibition of APC by recombinant (Arg358)α1-AT [2]: did not have any significant effect
90% inhibition of APC anticoagulant activity ([1]; APTT and Xa-1-stage assays in NHP and PSDP): approximately 50 μM
pIC50 ([1]; APTT and Xa-1-stage assays in NHP and PSDP, read-out: 50% inhibition of APC anticoagulant activity): 4.70 to 5.15
